Reference: patent US20060153853A1 (UNIVERSITY OF ADELAIDE, published 2006)
Where a chain is given by its changes, count along the chain named. In names and notes the source's numbering stands.

B1: K227AHis hIGFBP-2 (other, human)
chain: EVLFRCPPCTPERLAACGPPPVAPPAAVAAVAGGARMPCAELVREPGCGCCSVCARLEGEACGVYTPRCGQGLRCYPHPGSELPLQALVMGEGTCEKRRDAEYGASPEQVADNGDDHSEGGLVENHVDSTMNMLGGGGSAGRKPLKSGMKELAVFREKVTEQHRQMGKGGKHHLGLEEPKKLRPPPARTPCQQELDQVLERISTMRLPDERGPLEHLYSLHIPNCDAHGLYNLKQCKMSLNGQRGECWCVNPNTGKLIQGAPTIRGDPECHLFYNEQQEARGVHTQRMQHHHHHH
notes: mature
B2: K180A K181AHis hIGFBP-2 (other, human)
chain: B1 chain with K180A, K181A, A227K
notes: mature; also called K180A, K181A mutation
B3: K234AHis hIGFBP-2 (other, human)
chain: B1 chain with A227K, K234A
notes: mature; also called K234A hIGFBP-2; K234AHis IGFBP-2
B4: K237AHis hIGFBP-2 (other, human)
chain: B1 chain with A227K, K237A
notes: mature

Columns and labels:
[1] = target: T1, IGF-I (insulin-like growth factor I) (UniProt P05019 49-118); assay: SPR (BIAcore), IGF-I amine-coupled to CM5 chip; ratio against hIGFBP-2
T1 construct: Amine-coupled (70 RU) to a CM-5 biosensor chip; also added to HT-29 cells; also called IGF-1
T1 sequence (P05019 49-118 limits assumed): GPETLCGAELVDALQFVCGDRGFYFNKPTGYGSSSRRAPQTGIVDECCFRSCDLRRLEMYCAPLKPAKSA
Method: (§1) The IGF surface was regenerated with 10 mM HCl.
(§2) The dissociation constant (KD) was determined from the calculation of kd/kₐ, where kₐ is the association rate and kd is the dissociation rate.

[2] = target: T2, IGF-II (insulin-like growth factor II) (UniProt P01344 25-91); assay: SPR (BIAcore), IGF-II amine-coupled to CM5 chip; ratio against hIGFBP-2
T2 construct: Amine-coupled (70 RU) to a CM-5 biosensor chip
T2 sequence (P01344 25-91 limits assumed): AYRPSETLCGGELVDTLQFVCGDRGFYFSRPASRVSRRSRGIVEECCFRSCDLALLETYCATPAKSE
Method: as §1
(§3) Table 3. […] Data was analysed using BIAevaluation software 3.0 and fit to a Langmuir 1:1 binding model. The dissociation constant (KD) was determined from the calculation of kd/kₐ, where kₐ is the association rate and kd is the dissociation rate.

[3] = target: T1, IGF-I (insulin-like growth factor I); assay: SPR (BIAcore) on immobilised IGF-I; text summing up Table 2
Method: as §1, §2

[4] = target: T2, IGF-II (insulin-like growth factor II); assay: SPR (BIAcore) on immobilised IGF-II; text summing up Table 3
Method: as §1, §3

Row | Binder | Rel. KD (KD of hIGFBP-2/KD of hIGFBP-2 mutant) [1] | Rel. KD (KD of hIGFBP-2/KD of hIGFBP-2 mutant) [2] | fold higher affinity than native hIGFBP-2 [3] [fold] | fold higher affinity than native hIGFBP-2 [4] [fold]
1 | B1 | 1.34 | 1.27 | – | –
2 | B2 | 0.87 | 0.68 | – | –
3 | B3 | 0.64 | 0.37 | – | –
4 | B4 | 2.29 | 2.9 | ~2 | ~2
